Reference: US20230405078

Biological target: T1, elafin (AS-61641, Anaspec)
T1 chain: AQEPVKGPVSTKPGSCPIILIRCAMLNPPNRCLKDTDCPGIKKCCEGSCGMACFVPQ

B1: recombinant cathepsin S (1183-CY-010, R&D Systems) (protein)
chain: QLHKDPTLDHHWHLWKKTYGKQYKEKNEEAVRRLIWEKNLKFVMLHNLEHSMGMHSYDLGMNHLGDMTSEEVMSLMSSLRVPSQWQRNITYKSNPNRILPDSVDWREKGCVTEVKYQGSCGACWAFSAVGALEAQLKLKTGKLVSLSAQNLVDCSTEKYGNKGCNGGFMTTAFQYIIDNKGIDSDASYPYKAMDQKCQYDSKYRAATCSKYTELPYGREDVLKEAVANKGPVSVGVDARHPSFFLYRSGVYYEPSCTQNVNHGVLVVGYGDLNGKEYWLVKNSWGHNFGEEGYIRMARNKGNHCGIASFPSYPEI
B1 was tested. Which “ERK1/2 phosphorylation and ProCOL1A2 expression in colonic fibroblasts” value did it give?
Its value is “reversed elafin-mediated inhibition of ERK1/2 phosphorylation and ProCOL1A2 expression in colonic fibroblasts”.
